Results reported in a protein production outcome set (Wang et al. 2014).

Assay: label from the status in PepcDB records
In the case of “MNFLNENEKKITLIPPPEFVQYVGGHFEEVGKEFMQYFIEIGNLKSNETVLDVGCGIGRMAVPLMNYLSDDGTYYGFDLFNKGITWCKNNISTRRNNFHFEHVDIYNQFYNPDGKEDASQYKFPYEDESFDFIFLTSVFTHLLPKELEHYVREIARVLKKDGRCFITFFLINPESSYYLNAGLSPLGFYHQIDNCYVLNKDIPNFAVAYPEEDIRTLLNKYGLEMQTPPHYGSWCGRTEHTSYQDIILAQKISER”, the protein production is reported as “failed”.
With “MNFWEVVLIVVNFSLLSWILLIGRETKKWSKLATLIAVVMVTVQLLAEGFRWQMIPAYVSPVILILCYLLAGRKKGFRSSGIFIVKTSLLCIYLSVAVALPLLMPVFSFEEPTGPHRVGTKLYHWVDHQRNEPYSKNPNDRRELMVQIWYPAAEKSKGDPEPYIRNINELSKGLEKTLSIPAFAFSHMELVKSHSFMDLQLSDSENHYPILLFSHGFNGFRNQNTFQVEELASQGYIVLSIDHTFDAAATVFPGGRTAYVQPINLTDEGDSHIKLWEEDVSFVLNQIEKLNENDETGFFTGRLDTSRIGMFGHSYGGATAAQILAKDSRVKAAINMDGTLYGEILPESGIGKPFLLMNAEEPDEADPFEVRERYGRGLAGGGMSMVIPHTDHTSFTDLHLFSPLLQSPGENPKEVHRIINEFSLAFFDQYVKQKDDGSTLKRLITQYPEVNFKINR” the protein production was “failed”.
With “MNGIHDVGGMDGFGKVMYVKEEEDIYFTHDWERLALGLVAGCMAQGLGMKAFDEFRIGIELMRPVDYLTSSYYGHWIATVAYNLVDTGVLDEKELDERTEVFSKKPDTKIPRREDPALVKLVEKALNDGLSPLREISASPRFKVGERIKTKNIHPTGHTRFPRYARDKYGVIDEVYGAHVFPDDAAHRKGENPQYLYRVRFEAEELWGYKQKDSVYIDLWESYMEPVSH” the protein production was “not failed”.
With “MNGVLEQHWTGEGRRLRAAPAVLCLLLGTALAGCGDMNRFQTAAAPPTVAMPKPKPAVAQTPATEKEHERILASYGGTYDDPRLESLVTKTVDRLVAASDRPDQGYRITILNSGAVNAFALPNGQLYVTRGLLALASDTSELSSVLSHEMAHVLSKHAAMREDQARQAAIVTRVVTDMSNDPDLTALALAKTKLTMASFSRNQEFEADGIGVGISARAHFDPYGAARFLSAMERNAELKAGKTSLDPRAQDFTSSHPATPERVQNAQTIARQYVAPEGGERDRESYLAAIDNLVYGEDPERGFCPRPAFPASEARLHLPGAGQFHARQHRAGGDRRARRRLAGDALRRGAGAGRAVARRLPQFGLDGRRREGVHGRHHHQRLPGRVRHRQGRPVAVQGLCAAFRQRRLPLHLRGTAEVDRERAQCARDRQLVPSPDPRRDPGRPPAAHQGDHRAARRHRGIALPPHGRRRSPRRALPRAQRPRSQRAGEGEGSREGRGGLTLREARVIPGRLARTRDLEPRRHCRRVGKA” the protein production was “failed”.
With “MNHKQYLALAVPLIISTITTPLLGAVDTAVAGQLSSPAYIGGVAVGTMIFNTMYWLLGFLRVSTSGFAAQSLGSQNRSESVLALARPVFIALFAGLMFIILQKPLEYAALTLIQPDRHTAEFASQYFSLRIWGAPFALISYCILGWLMGMSLIKVTLLLQISMNVLNIVLDIVFVYVFHMEVYGIALATLISDVTGCLIGCWLVKTNAAMPFKLPSVKLLFDPKPFKKMMVVNRDLLIRTLCLLTVFNLFTAKGAGFGAEILAANAILIQIHYLMAYVFDGFANASSIFAGKAVGRMDRDLYSRTLSLSIQWSLISAALLSVGYFLLRNAILPLFTPLESVLEAAKTYDVWIALFPLAASFGLVFYGIFTGATEIGPVRNSMFLAVLVFLAAFFTAVPAFGNHGLWLAFLLFSLGRSVFLCMAVPGLTTRLFGERSAAREAGQRPKSLKHPG” the protein production was “failed”.
